Data taken from patent US20250230207A1, “COMPOSITION” (Worg Pharmaceuticals (Zhejiang) Co., Ltd., priority 2017, published 2025).

B1: huMBP: human myelin basic protein, immunising antigen (protein, UniProt P02686 1-304, looked up)
Myelin basic protein: MGNHAGKRELNAEKASTNSETNRGESEKKRNLGELSRTTSEDNEVFGEADANQNNGTSSQDTAVTDSKRTADPKNAWQDAHPADPGSRPHLIRLFSRDAPGREDNTFKDRPSESDELQTIQEDSAATSESLDVMASQKRPSQRHGSKYLATASTMDHARHGFLPRHRDTGILDSIGRFFGGDRGAPKRGSGKDSHHPARTAHYGSLPQKSHGRTQDENPVVHFFKNIVTPRTPPPSQGKGRGLSLSRFSWGAEGQRPGFGYGGRASDYKSAHKGFKGVDAQGTLSKIFKLGGRDSRSGSPMARR
B2: gpMBP: guinea pig myelin basic protein (SEQ ID NO: 6), immunising antigen (protein, listed as Cavia porcellus)
chain: ASQKRPSQRHGSKYLATASTMDHARHGFLPRHRDTGILDSIGRFFGSDRAAPKRGSGKDSHHAARTTHYGSLPQKSQRSQDENPVVHFFKNIVTPRTPPPSQGKGRGLSLSRFSWGAEGQKPGFGYGGRADYKSKGFKGAHDAQGTLSKIFKLGGRDSRSGSPMARR

Columns and labels:
Format in all cases: in vivo, Lewis rat
[1] = test system: experimental autoimmune uveitis (EAU) in Lewis rats; experiment: Example 1: development of uveitis (EAU) after immunisation with IRBP, gpMBP and/or huMBP; details: for Maximum Score of EAU: TEFI retinal score, maximum possible 6; for clinical signs of anterior uveitis: visual score 0-3, compared to the gpMBP-administered group, data until Day 21
Method: This study aimed at studying the effect, in Lewis rats, of immunisations with guinea pig myelin basic protein (gpMBP), human myelin basic protein (huMBP) and/or interphotoreceptor retinoid-binding protein with regard to development of encephalomyelitis (EAE) and/or uveitis (EAU).
(§1) Adult female Lewis rats were randomly allocated to experimental groups and allowed to acclimatise for one week. On Day 0, animals were administered by subcutaneous injection with 200 microliters of an emulsion containing 20 micrograms of IRBP1177-1191 (Cambridge Bioscience, UK) and/or 100 micrograms of human (Fitzgerald Industries International, MA, US) or guinea pig Myelin Basic Protein (gpMBP) in incomplete Freund's adjuvant (Sigma, UK) supplemented with 5 mg/ml Mycobacterium Tuberculosis H37Ra ([…]) (Becton Dickenson, UK). From Day 0 until the end of the experiment, animals were weighed daily. From Day 0 until the end of the experiment, animals were scored daily for clinical signs of experimental autoimmune encephalomyelitis to include limpness, paresis and/or paralysis of the tail, hind limbs and/or front limbs. From Day 0 until the end of the experiment, animals were scored twice weekly for clinical signs of uveitis. On Day 21 (Groups 1, 2 and 3) or Day 28 (Groups 4 and 5), animals were culled and the following samples were dissected out and stored in tissue fixative for optional histopathology analysis: brain, spinal cord, right and left eyes.
From Day 0 until the end of the experiment, animals were visually scored twice per week for clinical signs of anterior uveitis using the following scoring system. The maximum possible score was 3. Data were graphed (Mean±SEM).
From Day 0 until the end of the experiment, animals were scored twice per week for clinical signs of intermediate and posterior uveitis. Retinal images were captured using TEFI in non-anaesthetised but restrained animals following pupil dilatation using Tropicamide 1% then Phenylephrine hydrochloride 2.5%. Retinal images were scored using the following system. The maximum possible score was 6. Data were graphed (Mean±SEM).
Animals with an average score for both eyes greater than 0.5 on at least two consecutive TEFI sessions (see FIG. 2) or a score greater than 1.0 on any occasion were considered to have developed clinical signs of posterior uveitis. Based on this criterion, the incidence of EAU was:
Due to the lack of pigmentation in the retina of Lewis rats, the scoring system below was used. This is due to the inability to identify areas of infiltration causing haziness and cuffing on a pale background. Inflammation of the optic disc could not be clearly identified and was not therefore scored, also, no structural damage was observed. Infiltration of retinal vessels could be identified by engorged appearance on a scale of 0-3, mild to severe. Retinal inflammation was identified by the appearance of small to large areas of redness caused by increase in vascularisation also on a scale of 0-3, giving a total possible score of 6.
Clinical signs of anterior uveitis were also observed during the experiment. Data collected until Day 21 were analysed by two-way ANOVA followed by Dunnett's post-test for multiple comparisons between experimental groups.

[2] = test system: experimental autoimmune encephalomyelitis (EAE) in Lewis rats; experiment: Example 1: development of experimental autoimmune encephalomyelitis (EAE) after immunisation; details: paralytic symptom scoring 0-6
Method: as §1
Guinea pig MBP may induce Experimental autoimmune encephalomyelitis (EAE) in Lewis rats, a model for multiple sclerosis (MS). In this experiment, severe EAE was developed in Lewis rats immunised with gpMBP alone (incidence 8/8 rats; mean max score 3.5) or in combination with IRBP peptide (incidence 8/8 rats; mean max score 3.9) using the scoring system for paralytic symptoms: 0) no abnormality, (0.5) partial tail limpness, (1) complete tail limpness, (2) one hind limb paresis, (2.5) two hind limbs paresis, (3) one hind limb paralysis, (4) two hind limb paralysis, (5) incontinence and (6) moribund.

[3] = Example 1: bodyweights and non-specific clinical observations; details: Day 11 to Day 21, compared to the IRBP-administered group
Source text: Adult female Lewis rats were randomly allocated to experimental groups and allowed to acclimatise for one week. […] From Day 0 until the end of the experiment, animals were weighed daily. From Day 0 until the end of the experiment, animals were scored daily for clinical signs of experimental autoimmune encephalomyelitis to include limpness, paresis and/or paralysis of the tail, hind limbs and/or front limbs. From Day 0 until the end of the experiment, animals were scored twice weekly for clinical signs of uveitis. On Day 21 (Groups 1, 2 and 3) or Day 28 (Groups 4 and 5), animals were culled and the following samples were dissected out and stored in tissue fixative for optional histopathology analysis: brain, spinal cord, right and left eyes.
From Day 0 until the end of the experiment, animals were checked daily for non-specific clinical signs to include abnormal posture (hunched), abnormal coat condition (piloerection) and abnormal activity levels (reduced or increased activity).
From Day 0 until the end of the experiment, animals were weighed daily.

[4] = Lewis rats immunised SC Day 0 in CFA

| Molecule | Onset (Day) of EAU [1, 4] | Incidence of EAU (clinical signs of posterior uveitis) ([1]; Lewis rats immunised SC Day 0 in CFA, TEFI score criterion, affected/total in brackets) | Maximum Score of EAU [1] | clinical signs of anterior uveitis [1] | EAE incidence [2] | EAE mean max score [2] | bodyweight loss [3] | severity of the clinical signs of EAU compared to the other immunised groups ([1]; vs IRBP (p<0.001), IRBP and gpMBP (p<0.01), IRBP and huMBP (p<0.01), huMBP (p<0.05)) |
| --- | --- | --- | --- | --- | --- | --- | --- | --- |
| ADGSSWEGVGVVPDV [IRBP, reference compound] | 10.5 ± 0.5 days | 100% (8/8) | 5.6 ± 0.3 | observed from Day 11 | 2/8 | 1.0 | no significant bodyweight loss |  |
| B1 | 10.2 ± 0.7 days |  | 4.1 ± 0.5 | observed on Day 14 (p<0.0001) and Day 18 (p<0.01) | 3/14 | 1.0 | no significant bodyweight loss |  |
| B2 | 11.5 ± 0.5 days |  | 1.1 ± 0.2 |  | 8/8 | 3.5 | significant bodyweight loss | significantly lower |
